According to PMC10628450 (2023):

Experiments:
FcRn-His6 [1] = target: T1, FcRn-His6 (UniProt P55899 24-365); test: BLI; pH 6
FcRn-His6 [2] = target: T1, FcRn-His6; test: BLI; pH 6; remark: listed apart in the source

- koff (FcRn-His6 [1]): 0.0685 s⁻¹
- Kd (FcRn-His6 [2]): 0.361 µM
B1: Anti-NKp46 IgG (antibody)
chain 1: QVQLVQSGAEVKKPGSSVKVSCKASGYTFSDYVINWVRQAPGQGLEWMGEIYPGSGTNYYNEKFKAKATITADKSTSTAYMELSSLRSEDTAVYYCARRGRYGLYAMDYWGQGTTVTVSS
chain 2: DIQMTQSPSSLSASVGDRVTITCRASQDISNYLNWYQQKPGKAPKLLIYYTSRLHSGVPSRFSGSGSGTDFTFTISSLQPEDIATYFCQQGNTRPWTFGGGTKVEIK
modifications: In-house soluble FcRn-His6, tag omitted; ectodomain limits from UniProt topology; beta-2-microglobulin is not named in the paper and is added by convention as the obligate light chain; check residues are not from the paper; N-glycosylated
